*1 amine or outer side, *2 acyl side, *3 side chain or, on linkers, in order; H or OH if unused. Where no end group is shown, it is not given here. Side-chain parts run from the residue outwards. [ ]: non-standard residue; d: D form. The star is where a group is joined. C20 diacid = O=C(O)CCCCCCCCCCCCCCCCCCC(=O)*; C18 diacid = O=C(O)CCCCCCCCCCCCCCCCC(=O)*; γGlu = O=C(O)[C@H](CCC(=O)[*:2])N[*:1]; Nle = CCCC[C@H](N)C(=O)O; AEEA = NCCOCCOCC(=O)O; Aib = CC(C)(N)C(=O)O
T1: human GIP receptor (human) (UniProt P48546)
T1 sequence (looked up): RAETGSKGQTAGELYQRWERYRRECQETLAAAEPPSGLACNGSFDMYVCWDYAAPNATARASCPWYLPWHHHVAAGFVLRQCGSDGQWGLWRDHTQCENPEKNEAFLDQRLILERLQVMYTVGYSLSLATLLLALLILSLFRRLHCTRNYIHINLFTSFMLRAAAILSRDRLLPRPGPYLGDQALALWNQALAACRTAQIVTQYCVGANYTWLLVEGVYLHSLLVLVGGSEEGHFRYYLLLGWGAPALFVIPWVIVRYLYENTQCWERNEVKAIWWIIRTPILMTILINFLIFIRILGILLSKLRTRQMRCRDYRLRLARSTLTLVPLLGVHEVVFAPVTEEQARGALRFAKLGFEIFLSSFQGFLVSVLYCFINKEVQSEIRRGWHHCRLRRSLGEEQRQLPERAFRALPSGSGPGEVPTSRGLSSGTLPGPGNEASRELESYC


Experiments:
Assay in all cases: cell-based or functional assay
[1] = target: human GLP-1 receptor (human) (UniProt P43220)
Chain of human GLP-1 receptor (human) (P43220 24-463): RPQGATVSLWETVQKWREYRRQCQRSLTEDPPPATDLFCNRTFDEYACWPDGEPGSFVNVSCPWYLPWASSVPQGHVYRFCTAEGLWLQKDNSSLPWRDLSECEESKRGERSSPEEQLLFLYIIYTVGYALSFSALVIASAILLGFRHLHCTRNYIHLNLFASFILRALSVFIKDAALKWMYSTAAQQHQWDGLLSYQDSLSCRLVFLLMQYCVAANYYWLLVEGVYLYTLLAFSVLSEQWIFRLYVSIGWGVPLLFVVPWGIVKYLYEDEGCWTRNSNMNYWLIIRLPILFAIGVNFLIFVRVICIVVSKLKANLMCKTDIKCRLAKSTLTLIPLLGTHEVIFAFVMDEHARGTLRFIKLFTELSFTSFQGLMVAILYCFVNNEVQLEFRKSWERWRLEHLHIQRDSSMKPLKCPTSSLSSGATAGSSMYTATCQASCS

[2] = target: T1, human GIP receptor (human)
[3] = target: human glucagon receptor (human) (UniProt P47871)
Chain of human glucagon receptor (human) (P47871 26-477): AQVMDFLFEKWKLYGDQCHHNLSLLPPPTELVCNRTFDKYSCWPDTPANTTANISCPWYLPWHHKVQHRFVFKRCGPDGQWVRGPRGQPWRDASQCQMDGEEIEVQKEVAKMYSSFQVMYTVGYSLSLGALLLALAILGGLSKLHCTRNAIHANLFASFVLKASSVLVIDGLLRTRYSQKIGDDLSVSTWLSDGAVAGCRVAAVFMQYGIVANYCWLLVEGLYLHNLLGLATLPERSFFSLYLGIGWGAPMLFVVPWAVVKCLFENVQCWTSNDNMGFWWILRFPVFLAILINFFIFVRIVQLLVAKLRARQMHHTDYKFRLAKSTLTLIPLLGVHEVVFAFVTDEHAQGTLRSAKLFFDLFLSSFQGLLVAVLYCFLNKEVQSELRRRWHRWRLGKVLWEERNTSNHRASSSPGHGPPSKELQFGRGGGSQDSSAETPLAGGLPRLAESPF

Molecule | EC50 (pM), hGLP-1-R CRE Luc, 0.2% HSA [1] | EC50 (pM), hGIP-R CRE Luc, 0.2% HSA [2] | EC50 (pM), hGcg-R CRE Luc, 1% HSA (footnote *) [3]
N{1}-acetyl,N{Epsilon-24}-[(4S)-4-carboxy-4-[[(4S)-4-carboxy-4-[[(4S)-4-carboxy-4-(17-carboxyheptadecanoylamino)butanoyl]amino]butanoyl]amino]butanoyl]-[D-Tyr1,Aib2,Nle14,Arg18,Lys24,Pro31]-hGIP(1-31) amide (peptide) | > 100000 pM | 21.2 pM | 
N{1}-acetyl,N{Epsilon-24}-[(4S)-4-carboxy-4-[[(4S)-4-carboxy-4-[[(4S)-4-carboxy-4-[[(4S)-4-carboxy-4-[[4-[(19-carboxynonadecanoylamino)methyl]cyclohexanecarbonyl]amino]butanoyl]amino]butanoyl]amino]butanoyl]amino]butanoyl]-[D-Tyr1,Aib2,Nle14,Arg18,Lys24,Pro31]-hGIP(1-31) amide (peptide) |  | 26.1 pM | > 100000 pM
N{1}-acetyl, N{Epsilon-24}-[(4S)-4-carboxy-4-[[(4S)-4-carboxy-4-[[(4S)-4-carboxy-4-(17-carboxyheptadecanoylamino)butanoyl]amino]butanoyl]amino]butanoyl]-[D-Tyr1,Aib2,Nle14,Arg18,Lys24]-hGIP(1-31) (peptide) |  | 20.9 pM | 
N{Epsilon-24}-[(4S)-4-carboxy-4-[[(4S)-4-carboxy-4-[[(4S)-4-carboxy-4-[[4-[(19-carboxynonadecanoylamino)methyl]cyclohexanecarbonyl]amino]butanoyl]amino]butanoyl]amino]butanoyl]-[Aib2,Nle14,Arg18,Lys24]-hGIP(1-31) (peptide) |  | 72.1 pM | 
N{1}-acetyl,N{Epsilon-24}-[(4S)-4-carboxy-4-[[(4S)-4-carboxy-4-[[(4S)-4-carboxy-4-[[4-[(19-carboxynonadecanoylamino)methyl]cyclohexanecarbonyl]amino]butanoyl]amino]butanoyl]amino]butanoyl]-[D-Tyr1,Aib2,Nle14,Arg18,Lys24]-hGIP(1-31) (peptide) |  | 135 pM | 
N{Epsilon-24}-[2-[2-[2-[[2-[2-[2-[[(4S)-4-carboxy-4-[[4-[(19-carboxynonadecanoylamino)methyl]cyclohexanecarbonyl]amino]butanoyl]amino]ethoxy]ethoxy]acetyl]amino]ethoxy]ethoxy]acetyl]-[Aib2,Nle14,Arg18,Lys24]-hGIP(1-31) (peptide) |  | 44.7 pM | 
N{Epsilon-24}-[(4S)-4-carboxy-4-[[(4S)-4-carboxy-4-[[(4S)-4-carboxy-4-[[4-[(19-carboxynonadecanoylamino)methyl]cyclohexanecarbonyl]amino]butanoyl]amino]butanoyl]amino]butanoyl]-[Aib2,Nle14,Arg18,Lys24,Pro31]-hGIP(1-31) amide (peptide) |  | 61.5 pM | 
Ac-YAEGTFISDYSIA[Nle]DKIRQQDFVK([γGlu-γGlu-γGlu-C18 diacid])WLLAQKG |  | 546 pM | 
Ac-[dY]AEGTFISDYSIADDKIRQEDFVK([AEEA-AEEA-γGlu-C18 diacid])WLLAQKG |  | 91.5 pM | 
Ac-[dY]AEGTFISDYSIA[Nle]DKIRQQDFVK([γGlu-γGlu-γGlu-4‑(aminomethyl)cyclohexanecarbonyl-C20 diacid])WLLAQKP-NH2 |  | 76.2 pM | 
Ac-[dY][Aib]EGTFISDYSIA[Nle]DKIHQQDFVK([γGlu-γGlu-γGlu-4‑(aminomethyl)cyclohexanecarbonyl-C20 diacid])WLLAQKP-NH2 |  | 38.4 pM | 
Y[Aib]EGTFISDYSIA[Nle]DKIHQEDFVK([γGlu-γGlu-γGlu-γGlu-C18 diacid])WLLAQKG |  | 158 pM | 
Ac-[dY]AEGTFISDYSIA[Nle]DKIRQQDFVK([γGlu-γGlu-γGlu-4‑(aminomethyl)cyclohexanecarbonyl-C20 diacid])WLLAQKG |  | 180 pM | 
Ac-[dY]AEGTFISDYSIA[Nle]DKIRQQDFVK([AEEA-AEEA-γGlu-γGlu-γGlu-C18 diacid])WLLAQKG |  | 43.1 pM | 
Y[Aib]EGTFISDYSIA[Nle]DKIRQ[Aib]DFVK([γGlu-γGlu-γGlu-C18 diacid])WLLAQKG |  | 9.4 pM | 
Ac-[dY]AEGTFISDYSIA[Nle]DKIRQEDFVK([AEEA-AEEA-γGlu-C18 diacid])WLLAQKG |  | 25 pM | 
Y[Aib]EGTFISDYSIA[Nle]DKIRQEDFVK([γGlu-γGlu-γGlu-4‑(aminomethyl)cyclohexanecarbonyl-C20 diacid])WLLAQKG |  | 252 pM | 
Ac-[dY]AEGTFISDYSIA[Nle]DKIHQ[Aib]DFVK([γGlu-γGlu-γGlu-4‑(aminomethyl)cyclohexanecarbonyl-C20 diacid])WLLAQKG |  | 153 pM | 
Y[Aib]EGTFISDYSIA[Nle]DKIRQEDFVK([γGlu-γGlu-γGlu-C18 diacid])WLLAQKG |  | 62.9 pM | 
Ac-[dY]AEGTFISDYSIA[Nle]DKIRQQDFVK([γGlu-γGlu-γGlu-C18 diacid])WLLAQKG |  | 48.9 pM | 
Y[Aib]EGTFISDYSIA[Nle]DKIHQQDFVK([γGlu-γGlu-γGlu-4‑(aminomethyl)cyclohexanecarbonyl-C20 diacid])WLLAQKP-NH2 |  | 67.5 pM | 
Y[Aib]EGTFISDYSIA[Nle]DKIRQQDFVK([γGlu-γGlu-γGlu-4‑(aminomethyl)cyclohexanecarbonyl-C20 diacid])WLLAQKGKEEDWKHNITQ |  | 22 pM | 
Y[Aib]EGTFISDYSIA[Nle]DAIRQQDFVK([γGlu-γGlu-γGlu-C18 diacid])WLLAQKG |  | 72.5 pM | 
Y[Aib]EGTFISDYSIA[Nle]DKIRQQDFVK([AEEA-AEEA-γGlu-4‑(aminomethyl)cyclohexanecarbonyl-C20 diacid])WLLAQKGKEEDWKHNITQ |  | 14 pM | 
Ac-[dY]AEGTFISDYSIA[Nle]DKIHQEDFVK([γGlu-γGlu-γGlu-4‑(aminomethyl)cyclohexanecarbonyl-C20 diacid])WLLAQKG |  | 547 pM | 
Y[Aib]EGTFISDYSIA[Nle]DKIRQ[Aib]DFVK([γGlu-γGlu-γGlu-4‑(aminomethyl)cyclohexanecarbonyl-C20 diacid])WLLAQKG |  | 71.2 pM | 
Y[Aib]EGTFISDYSIA[Nle]DKIHQEDFVK([γGlu-γGlu-γGlu-γGlu-4‑(aminomethyl)cyclohexanecarbonyl-C20 diacid])WLLAQKG |  | 810 pM | 
Y[Aib]EGTFISDYSIA[Nle]DAIRQQDFVK([γGlu-γGlu-γGlu-4‑(aminomethyl)cyclohexanecarbonyl-C20 diacid])WLLAQKG |  | 266 pM | 
Ac-[dY]AEGTFISDYSIA[Nle]DKIHQQDFVK([γGlu-γGlu-γGlu-4‑(aminomethyl)cyclohexanecarbonyl-C20 diacid])WLLAQKP-NH2 |  | 71.2 pM | 
Ac-[dY]AEGTFISDYSIA[Nle]DKIRQQDFVK([AEEA-AEEA-γGlu-C18 diacid])WLLAQKG |  | 30.4 pM | 

Source: patent publication US20190367578A1 (Novo Nordisk, published 2019)
